What all share (assay type): binding
For experiment [1], the target named is T1, human EphA6 (Homo sapiens, UniProt Q9UF33).
T1 construct: a protein of the extracellular region of each human Eph receptor fused with the SEAP protein and the His tag; made in house; host or cells: Expi293F cells (culture supernatant)
T1 sequence (Q9UF33 23-550 limits assumed): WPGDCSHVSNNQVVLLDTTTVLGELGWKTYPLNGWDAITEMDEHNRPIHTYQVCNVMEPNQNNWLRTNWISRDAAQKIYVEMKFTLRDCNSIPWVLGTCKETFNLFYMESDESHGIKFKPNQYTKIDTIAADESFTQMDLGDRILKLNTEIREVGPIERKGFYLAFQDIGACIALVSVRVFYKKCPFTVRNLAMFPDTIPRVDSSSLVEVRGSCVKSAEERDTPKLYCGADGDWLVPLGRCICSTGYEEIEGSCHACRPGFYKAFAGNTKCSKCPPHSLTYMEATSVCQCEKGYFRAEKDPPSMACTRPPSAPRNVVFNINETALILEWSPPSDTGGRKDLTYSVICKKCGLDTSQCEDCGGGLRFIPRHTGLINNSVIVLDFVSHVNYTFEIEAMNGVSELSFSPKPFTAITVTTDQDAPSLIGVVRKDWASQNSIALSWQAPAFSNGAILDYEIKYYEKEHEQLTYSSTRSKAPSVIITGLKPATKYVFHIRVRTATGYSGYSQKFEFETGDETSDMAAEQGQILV
The experiment in a line: Selectivity ELISA of humanized antibodies for human Eph receptor. The conditions noted are these: coated protein 1 nM. The procedure, abridged: (§1)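 Human Eph ECD-SEAP-His fusions, harvested after 5 days of Expi293F expression, are captured on anti-His-coated wells (1 nM final). Bound humanized antibody is detected with HRP anti-IgG and TMB at 450 nm.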
A general note: An ELISA detects its analyte on a solid surface through an enzyme-linked reagent.

The target of experiment [2] is T2, human EphA2 (Homo sapiens, UniProt P29317).
T2 construct: a protein of the extracellular region of each human Eph receptor fused with the SEAP protein and the His tag; made in house; host or cells: Expi293F cells (culture supernatant)
Described as above. The conditions noted are these: coated protein 1 nM. The procedure, abridged:
as §1

The target in experiment [3] is T3, human EphA4 (Homo sapiens, UniProt P54764).
T3 construct: made in house; not restated for the human SEAP-His protein
The experiment in a line: Affinity of humanized antibodies by SPR (Biacore T200). To be noted: human EphA4 extracellular region-SEAP-His; for ka / kd: 1:1 binding model; for Kd: KD=kd/ka. In short, it runs like this:
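Humanized antibodies captured on protein A chip (antibody A via immobilized rat anti-mouse IgG1) at about 30 to 60 RU in HBS-EP; human EphA4 extracellular region-SEAP-His injected single-cycle at 0.6 to 50 nM, 120 s association, 900 s dissociation. KD = kd/ka from 1:1 binding fits.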
In general terms: SPR reads the build-up and loss of mass on a sensor chip optically.

T3 sequence (P54764 20-547): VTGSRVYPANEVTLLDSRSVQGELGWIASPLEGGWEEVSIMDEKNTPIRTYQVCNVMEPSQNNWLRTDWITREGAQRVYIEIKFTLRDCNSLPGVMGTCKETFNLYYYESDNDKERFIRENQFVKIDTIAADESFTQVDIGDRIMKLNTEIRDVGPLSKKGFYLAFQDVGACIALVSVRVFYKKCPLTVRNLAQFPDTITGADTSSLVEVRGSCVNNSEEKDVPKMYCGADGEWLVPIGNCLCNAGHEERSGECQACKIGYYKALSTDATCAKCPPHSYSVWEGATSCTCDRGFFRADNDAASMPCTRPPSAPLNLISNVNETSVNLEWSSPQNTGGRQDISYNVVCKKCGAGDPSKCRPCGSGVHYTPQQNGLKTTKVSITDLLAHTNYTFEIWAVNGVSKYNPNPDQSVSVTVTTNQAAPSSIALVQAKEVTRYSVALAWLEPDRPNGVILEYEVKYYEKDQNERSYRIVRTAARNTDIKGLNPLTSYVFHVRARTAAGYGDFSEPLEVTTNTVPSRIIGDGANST
T2 sequence (P29317 24-537 limits assumed): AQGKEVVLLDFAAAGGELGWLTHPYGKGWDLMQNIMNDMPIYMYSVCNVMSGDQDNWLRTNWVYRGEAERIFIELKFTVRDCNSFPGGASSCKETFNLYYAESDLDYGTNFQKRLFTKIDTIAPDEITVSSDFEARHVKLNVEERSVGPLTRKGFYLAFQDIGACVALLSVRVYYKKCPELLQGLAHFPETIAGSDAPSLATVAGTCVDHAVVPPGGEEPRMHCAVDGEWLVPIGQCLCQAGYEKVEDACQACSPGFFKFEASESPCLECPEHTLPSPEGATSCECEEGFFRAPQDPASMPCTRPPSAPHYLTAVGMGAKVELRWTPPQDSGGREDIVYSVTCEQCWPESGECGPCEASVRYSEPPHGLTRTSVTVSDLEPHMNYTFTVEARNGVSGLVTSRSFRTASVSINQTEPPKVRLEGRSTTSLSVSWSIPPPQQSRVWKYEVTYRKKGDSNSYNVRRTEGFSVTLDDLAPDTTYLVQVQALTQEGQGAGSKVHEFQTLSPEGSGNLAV

B1: 159 (antibody, V domains shown)
VH: QVQLVQSGSELKKPGASVKVSCKASGYTFTDYSMHWVRQAPGQGLKWMGWINTETGEPTYADDFKGRFVFSLDTSVSTAYLQISSLKAEDTAVYYCARIPLYYYGSRYWYFDVWGQGTTVTVSS
VL: DIQMTQSPSSLSASVGDRVTITCRASENIYRNLAWYQQKPGKAPQLLLYAATNLADGVPSRFSGSGSGTDYTLTISSLQPEDFATYYCQHFWGTPWTFGQGTKVEIK
modifications: synthetic humanized antibody heavy chain variable region sequence; synthetic humanized antibody light chain variable region sequence
A word on the Kd: it is a measure of binding affinity in units of concentration. Turning to B1, in experiment [1], the “hEphA6-SEAP-: absorbance at 450 nm, percentage with respect to hEphA4-SEAP-His as 100%” value amounted to 7.6%. Also, the “hEphA2-SEAP-: absorbance at 450 nm, percentage with respect to hEphA4-SEAP-His as 100%” value in experiment [2] amounted to 5.4%. Besides, in experiment [3], the ka worked out at 310000 M⁻¹ s⁻¹, the kd worked out at 0.00061 s⁻¹ and the Kd turned out to be 2 nM.

B2: 132 (antibody, V domains shown)
VH: QIQLVQSGSELKKPGASVKVSCKASGYTFTDYSMHWVRQAPGQGLKWMGWINTETGEPTYAQGFTGRFVFSLDTSVSTAYLQISSLKAEDTAVYYCARIPLYYYGSRYWYFDVWGQGTTVTVSS
VL: EIVMTQSPATLSVSPGERATLSCRASENIYRNLAWYQQKPGQSPRLLIYAATNLADGIPARFSGSGSGTEYTLTISSLQSEDFAVYYCQHFWGTPWTFGQGTKVEIK
modifications: synthetic humanized antibody heavy chain variable region sequence; synthetic humanized antibody light chain variable region sequence
For B2, the “hEphA6-SEAP-: absorbance at 450 nm, percentage with respect to hEphA4-SEAP-His as 100%” value in experiment [1] was determined as 9.7%. The “hEphA2-SEAP-: absorbance at 450 nm, percentage with respect to hEphA4-SEAP-His as 100%” value in experiment [2] is recorded as 4.8%. In experiment [3], the ka was found to be 270000 M⁻¹ s⁻¹; the kd is 0.00031 s⁻¹; the affinity, expressed as Kd, was 1.2 nM.

B3: 134 (antibody, V domains shown)
VH: QVQLVQSGSELKKPGASVKVSCKASGYTFTDYSMHWVRQAPGQGLKWMGWINTETGEPTYAQGFTGRFVFSLDTSVSTAYLQISSLKAEDTAVYYCARIPLYYYGSRYWYFDVWGQGTTVTVSS
VL: EIVMTQSPATLSVSPGERATLSCRASENIYRNLAWYQQKPGQSPRLLIYAATNLADGIPARFSGSGSGTEYTLTISSLQSEDFAVYYCQHFWGTPWTFGQGTKVEIK
modifications: synthetic humanized antibody heavy chain variable region sequence; synthetic humanized antibody light chain variable region sequence
Consider B3, for which the “hEphA6-SEAP-: absorbance at 450 nm, percentage with respect to hEphA4-SEAP-His as 100%” value in experiment [1] was 9.6%. The “hEphA2-SEAP-: absorbance at 450 nm, percentage with respect to hEphA4-SEAP-His as 100%” value in experiment [2] came to 5.0%. In addition, in experiment [3], the ka was found to be 280000 M⁻¹ s⁻¹, the kd was 0.00032 s⁻¹ and binding was put at a Kd of 1.2 nM.

B4: 160 (antibody, V domains shown)
VH: QIQLVQSGSELKKPGASVKVSCKASGYTFTDYSMHWVRQAPGQGLKWMGWINTETGEPTYADDFKGRFVFSLDTSVSTAYLQISSLKAEDTAVYYCARIPLYYYGSRYWYFDVWGQGTTVTVSS
VL: DIQMTQSPSSLSASVGDRVTITCRASENIYRNLAWYQQKPGKAPQLLLYAATNLADGVPSRFSGSGSGTDYTLTISSLQPEDFATYYCQHFWGTPWTFGQGTKVEIK
modifications: synthetic humanized antibody heavy chain variable region sequence; synthetic humanized antibody light chain variable region sequence
Turning to B4, the “hEphA6-SEAP-: absorbance at 450 nm, percentage with respect to hEphA4-SEAP-His as 100%” value in experiment [1] is on record as 8.7%. Moreover, the “hEphA2-SEAP-: absorbance at 450 nm, percentage with respect to hEphA4-SEAP-His as 100%” value in experiment [2] turned out to be 6.1%. In experiment [3], the ka came out at 320000 M⁻¹ s⁻¹, the kd came out at 0.00061 s⁻¹ and binding was put at a Kd of 1.9 nM.

B5: 75 (antibody)
VH: QVQLVQSGSELKKPGASVKVSCKASGYTFTDYSMHWVRQAPGQGLEWMGWINTETGEPTYAQGFTGRFVFSLDTSVSTAYLQISSLKAEDTAVYYCARIPLYYYGSRYWYFDVWGQGTTVTVSS
VL: DIQMTQSPSSLSASVGDRVTITCRASENIYRNLAWYQQKPGKAPKLLVYAATNLADGVPSRFSGSGSGTDYTLTISSLQPEDFATYYCQHFWGTPWTFGQGTKVEIK
chain: ASTKGPSVFPLAPSSKSTSGGTAALGCLVKDYFPEPVTVSWNSGALTSGVHTFPAVLQSSGLYSLSSVVTVPSSSLGTQTYICNVNHKPSNTKVDKRVEPKSCDKTHTCPPCPAPPAAAPSVFLFPPKPKDTLMISRTPEVTCVVVDVSHEDPEVQFNWYVDGVEVHNAKTKPREEQFNSTFRVVSVLTVVHQDWLNGKEYKCKVSNKGLPAPIEKTISKTKGQPREPQVYTLPPSREEMTKNQVSLTCLVKGFYPSDIAVEWESNGQPENNYKTTPPMLDSDGSFFLYSKLTVDKSRWQQGNVFSCSVMHEALHNHYTQKSLSLSPG
modifications: synthetic humanized antibody heavy chain variable region sequence; synthetic humanized antibody light chain variable region sequence; synthetic antibody constant region sequence
On to B5, for which the “hEphA6-SEAP-: absorbance at 450 nm, percentage with respect to hEphA4-SEAP-His as 100%” value in experiment [1] worked out at 8.3%. The “hEphA2-SEAP-: absorbance at 450 nm, percentage with respect to hEphA4-SEAP-His as 100%” value in experiment [2] was 4.6%. Besides, in experiment [3], the ka came out at 380000 M⁻¹ s⁻¹, the kd turned out to be 0.00042 s⁻¹ and the Kd was found to be 1.2 nM.

B6: 133 (antibody, V domains shown)
VH: QVQLVQSGSELKKPGASVKVSCKASGYTFTDYSMHWVRQAPGQGLEWMGWINTETGEPTYAQGFTGRFVFSLDTSVSTAYLQISSLKAEDTAVYYCARIPLYYYGSRYWYFDVWGQGTTVTVSS
VL: EIVMTQSPATLSVSPGERATLSCRASENIYRNLAWYQQKPGQSPRLLIYAATNLADGIPARFSGSGSGTEYTLTISSLQSEDFAVYYCQHFWGTPWTFGQGTKVEIK
modifications: synthetic humanized antibody heavy chain variable region sequence; synthetic humanized antibody light chain variable region sequence
With B6, in experiment [1], the “hEphA6-SEAP-: absorbance at 450 nm, percentage with respect to hEphA4-SEAP-His as 100%” value is 8.8%. Moreover, the “hEphA2-SEAP-: absorbance at 450 nm, percentage with respect to hEphA4-SEAP-His as 100%” value in experiment [2] came to 4.7%. In experiment [3], this molecule showed a ka of 300000 M⁻¹ s⁻¹, a kd of 0.00032 s⁻¹ and a Kd of 1.1 nM.

B7: 76 (antibody, V domains shown)
VH: QVQLVQSGSELKKPGASVKVSCKASGYTFTDYSMHWVRQAPGQGLKWMGWINTETGEPTYAQGFTGRFVFSLDTSVSTAYLQISSLKAEDTAVYYCARIPLYYYGSRYWYFDVWGQGTTVTVSS
VL: DIQMTQSPSSLSASVGDRVTITCRASENIYRNLAWYQQKPGKAPKLLVYAATNLADGVPSRFSGSGSGTDYTLTISSLQPEDFATYYCQHFWGTPWTFGQGTKVEIK
modifications: synthetic humanized antibody heavy chain variable region sequence; synthetic humanized antibody light chain variable region sequence
Regarding B7, the “hEphA6-SEAP-: absorbance at 450 nm, percentage with respect to hEphA4-SEAP-His as 100%” value in experiment [1] is recorded as 7.9%. The “hEphA2-SEAP-: absorbance at 450 nm, percentage with respect to hEphA4-SEAP-His as 100%” value in experiment [2] stood at 4.8%. In experiment [3], the ka is 330000 M⁻¹ s⁻¹, the kd was found to be 0.00034 s⁻¹ and binding was characterised by a dissociation constant (Kd) of 1 nM.

B8: 135 (antibody, V domains shown)
VH: QVQLVQSGSELKKPGASVKVSCKASGYTFTDYSMHWVRQAPGQGLEWMGWINTETGEPTYADDFKGRFVFSLDTSVSTAYLQISSLKAEDTAVYYCARIPLYYYGSRYWYFDVWGQGTTVTVSS
VL: EIVMTQSPATLSVSPGERATLSCRASENIYRNLAWYQQKPGQSPRLLIYAATNLADGIPARFSGSGSGTEYTLTISSLQSEDFAVYYCQHFWGTPWTFGQGTKVEIK
modifications: synthetic humanized antibody heavy chain variable region sequence; synthetic humanized antibody light chain variable region sequence
For B8, the “hEphA6-SEAP-: absorbance at 450 nm, percentage with respect to hEphA4-SEAP-His as 100%” value in experiment [1] was determined as 7.0%. In addition, the “hEphA2-SEAP-: absorbance at 450 nm, percentage with respect to hEphA4-SEAP-His as 100%” value in experiment [2] was 5.0%. In experiment [3], this molecule registered a ka of 320000 M⁻¹ s⁻¹, a kd of 0.0004 s⁻¹ and a Kd of 1.3 nM.
